# Measurements taken from article PMC6126693.
# Test system: ZIC2 zinc finger domains (five ZnF)
# Assay: ITC
# Conditions: ITC: 300 mM NaCl, 50 mM potassium phosphate, pH 8.0, 25 C, EMSA: binding buffer not specified, 30 min 37 C, 6% PAGE 1x TBE 4 C
Substance,Ka [M⁻¹],Ka (RNA 60 uM into protein 5 uM) [M⁻¹]
sense PCAT92 RNA (predicted ZIC2-binding region),1e+09,
antisense PCAT92 RNA,,1e+06
